In patent US20030143232:

Key:
[1] = molecular target: recombinant wild type survivin (unphosphorylated) (UniProt O15392)
[2] = molecular target: recombinant survivin(T34A) (UniProt O15392)
Sequence of recombinant survivin(T34A) (O15392 whole entry T34A): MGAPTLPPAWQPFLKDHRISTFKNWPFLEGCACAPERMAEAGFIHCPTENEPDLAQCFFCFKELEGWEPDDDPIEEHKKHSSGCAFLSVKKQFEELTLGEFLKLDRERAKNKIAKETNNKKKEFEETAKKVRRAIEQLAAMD

Sequence of recombinant wild type survivin (unphosphorylated) (O15392 whole entry, looked up): as the sequence (O15392 whole entry T34A) above, with A34T counted along it

| Substance | in vitro kinase assay, 32P autoradiography [1] | in vitro kinase assay, 32P autoradiography [2] |
| --- | --- | --- |
| baculovirus-expressed human p34^cdc2-cyclin B1 kinase complex | baculovirus-expressed p34^cdc2-cyclin B1 readily phosphorylated recombinant wild type survivin | substitution of Thr^34→Ala, i.e. survivin(T34A), abolished phosphorylation by p34^cdc2-cyclin B1 |
| baculovirus-expressed human Cdk2-cyclin E kinase complex | baculovirus-expressed Cdk2-cyclin E did not phosphorylate wild type survivin or survivin(T34A) | baculovirus-expressed Cdk2-cyclin E did not phosphorylate wild type survivin or survivin(T34A) |
